From PMC5924515

Key:
[1] = target: T1, VapB15;VapC15-His6 (Synechocystis sp. PCC 6803;Synechocystis sp. PCC 6803) (UniProt P74009+P74010); test: EMSA
T1 sequence 1: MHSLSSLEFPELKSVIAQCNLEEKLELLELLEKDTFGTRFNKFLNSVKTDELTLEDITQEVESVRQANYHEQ
T1 sequence 2: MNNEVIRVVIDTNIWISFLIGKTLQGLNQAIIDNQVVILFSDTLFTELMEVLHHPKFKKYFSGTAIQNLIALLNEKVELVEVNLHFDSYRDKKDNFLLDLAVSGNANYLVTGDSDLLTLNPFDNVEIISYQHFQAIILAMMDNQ

[2] = target: T2, VapB15 (Synechocystis sp. PCC 6803) (UniProt P74009); test: EMSA; conditions: 100 mM Tris-HCl pH 8.0, 100 mM NaCl, 1 mM DTT, 10% glycerol, 0.1 mg/mL sonicated salmon sperm DNA, 25 C, 30 min; 5% native PAGE in 0.5x TBE
T2 sequence: T1 sequence 1

Sequence | binding [1] | binding [2]
CAAAGCTCTGGCAACCCTGCAGAACTTTAAACCTATCCCCCTAGGCTTGGGGCCAGGGGACTTTTCAAGCAACTCCTTGGGGCACTATTTGGAAATGTGATAATGGGAGTTATAATTCGCCTCTCGGAGAAAAGTTGAAATGCACTCATTGTCATCACTGGAATTTC (double strand) [P1 (PvapBC15 promoter, PS1 and PS2)] | binds more weakly | binds
GAAATTCCAGTGATGACAATGAGTGCATTTCAACTTTTCTCCGAGAGGCGAATTATAACTCCCATTATCACATTTCCAAATAGTGCCCCAAGGAGTTGCTTGAAAAGTCCCC (double strand) [P2 (3' half of PS1 and whole PS2)] |  | no binding
